Test results taken from the supplement of paper PMC9112550, “Optimization of the antimicrobial peptide Bac7 by deep mutational scanning” (BMC Biology, 2022).

tested on: Escherichia coli TOP10; assay: shrunken log2 fold change of peptide-encoding DNA abundance (4.5 h post-induction vs induction); higher = less antimicrobial activity (less host growth inhibition); details: time post-induction: 4.5 h; library: site-saturation at positions 5, 18, 19, 20
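Further: peptides expressed intracellularly from a pBAD plasmid library in pooled LB shake-flask culture, induced with 0.3% L-arabinose, DNA abundance read by NGS, three biological replicates, DESeq2 with apeglm shrinkage.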

Row | Sequence | shrunken log2 fold change
1 | RRIRARPPRLPRPRPRPFINPRP | -0.356
2 | RRIRARPPRLPRPRPRPFITPRP | -0.543
3 | RRIRARPPRLPRPRPRPFKDPRP | -0.0208
4 | RRIRARPPRLPRPRPRPFLFPRP | 0.162
5 | RRIRARPPRLPRPRPRPFLSPRP | -0.107
6 | RRIRARPPRLPRPRPRPFMCPRP | 0.618
7 | RRIRARPPRLPRPRPRPFMSPRP | -0.0065
8 | RRIRARPPRLPRPRPRPFNMPRP | -0.201
9 | RRIRARPPRLPRPRPRPFPAPRP | 0.439
10 | RRIRARPPRLPRPRPRPFPEPRP | 0.319
11 | RRIRARPPRLPRPRPRPFSSPRP | -0.159
12 | RRIRARPPRLPRPRPRPFTAPRP | -0.111
13 | RRIRARPPRLPRPRPRPFTNPRP | -0.273
14 | RRIRARPPRLPRPRPRPFVGPRP | -0.0485
15 | RRIRARPPRLPRPRPRPFVQPRP | -0.00645
16 | RRIRARPPRLPRPRPRPFVRPRP | -0.0552
17 | RRIRARPPRLPRPRPRPFWYPRP | -0.181
18 | RRIRARPPRLPRPRPRPFYNPRP | -0.44
19 | RRIRARPPRLPRPRPRPGAEPRP | 1.1
20 | RRIRARPPRLPRPRPRPGAHPRP | 0.669
21 | RRIRARPPRLPRPRPRPGAPPRP | 0.703
22 | RRIRARPPRLPRPRPRPGCCPRP | 0.841

Row | Sequence | shrunken log2 fold change
23 | RRIRARPPRLPRPRPRPGDDPRP | 0.846
24 | RRIRARPPRLPRPRPRPGDTPRP | 0.264
25 | RRIRARPPRLPRPRPRPGEDPRP | 0.814
26 | RRIRARPPRLPRPRPRPGENPRP | 0.687
27 | RRIRARPPRLPRPRPRPGEPPRP | 0.601
28 | RRIRARPPRLPRPRPRPGFLPRP | 0.426
29 | RRIRARPPRLPRPRPRPGGPPRP | 0.294
30 | RRIRARPPRLPRPRPRPGHGPRP | 0.377
31 | RRIRARPPRLPRPRPRPGICPRP | 0.182
32 | RRIRARPPRLPRPRPRPGKIPRP | 0.0623
33 | RRIRARPPRLPRPRPRPGKRPRP | 0.374
34 | RRIRARPPRLPRPRPRPGLDPRP | 0.419
35 | RRIRARPPRLPRPRPRPGLTPRP | 0.686
36 | RRIRARPPRLPRPRPRPGMAPRP | 0.709
37 | RRIRARPPRLPRPRPRPGMVPRP | 0.509
38 | RRIRARPPRLPRPRPRPGNHPRP | -0.0331
39 | RRIRARPPRLPRPRPRPGPRPRP | 1.22
40 | RRIRARPPRLPRPRPRPGQKPRP | -0.0844
41 | RRIRARPPRLPRPRPRPGQNPRP | 0.596
42 | RRIRARPPRLPRPRPRPGSDPRP | 0.536
43 | RRIRARPPRLPRPRPRPGSGPRP | 0.576
44 | RRIRARPPRLPRPRPRPGSIPRP | -0.283

Row | Sequence | shrunken log2 fold change
45 | RRIRARPPRLPRPRPRPGSSPRP | -0.112
46 | RRIRARPPRLPRPRPRPGTRPRP | 0.532
47 | RRIRARPPRLPRPRPRPGVQPRP | 0.0878
48 | RRIRARPPRLPRPRPRPGVSPRP | 0.559
49 | RRIRARPPRLPRPRPRPGWGPRP | 0.463
50 | RRIRARPPRLPRPRPRPGWQPRP | 0.0839
51 | RRIRARPPRLPRPRPRPGYAPRP | 0.0374
52 | RRIRARPPRLPRPRPRPGYWPRP | 0.363
53 | RRIRARPPRLPRPRPRPHAWPRP | 0.375
54 | RRIRARPPRLPRPRPRPHDAPRP | 0.122
55 | RRIRARPPRLPRPRPRPHDPPRP | 0.402
56 | RRIRARPPRLPRPRPRPHFRPRP | 0.166
57 | RRIRARPPRLPRPRPRPHFWPRP | 0.23
58 | RRIRARPPRLPRPRPRPHGFPRP | -0.00228
59 | RRIRARPPRLPRPRPRPHGPPRP | 0.321
60 | RRIRARPPRLPRPRPRPHGRPRP | 0.0226
61 | RRIRARPPRLPRPRPRPHIDPRP | 0.205
62 | RRIRARPPRLPRPRPRPHIFPRP | 0.141
63 | RRIRARPPRLPRPRPRPHIGPRP | -0.175
64 | RRIRARPPRLPRPRPRPHLPPRP | 0.0943
65 | RRIRARPPRLPRPRPRPHMKPRP | -0.188
66 | RRIRARPPRLPRPRPRPHNHPRP | -0.436

Row | Sequence | shrunken log2 fold change
67 | RRIRARPPRLPRPRPRPHNIPRP | -0.124
68 | RRIRARPPRLPRPRPRPHNKPRP | -0.398
69 | RRIRARPPRLPRPRPRPHNSPRP | 1.18
70 | RRIRARPPRLPRPRPRPHPAPRP | 0.478
71 | RRIRARPPRLPRPRPRPHPYPRP | -0.484
72 | RRIRARPPRLPRPRPRPHRCPRP | 0.0993
73 | RRIRARPPRLPRPRPRPHRDPRP | 0.0774
74 | RRIRARPPRLPRPRPRPHRKPRP | -0.000548
75 | RRIRARPPRLPRPRPRPHWVPRP | 0.0153
76 | RRIRARPPRLPRPRPRPHYHPRP | -0.332
77 | RRIRARPPRLPRPRPRPHYVPRP | -0.255
78 | RRIRARPPRLPRPRPRPICDPRP | 0.497
79 | RRIRARPPRLPRPRPRPICVPRP | 0.154
80 | RRIRARPPRLPRPRPRPIDMPRP | -0.0819
81 | RRIRARPPRLPRPRPRPIIAPRP | 0.00311
82 | RRIRARPPRLPRPRPRPIIGPRP | -0.065
83 | RRIRARPPRLPRPRPRPIKQPRP | -0.0628
84 | RRIRARPPRLPRPRPRPIKSPRP | 0.226
85 | RRIRARPPRLPRPRPRPILEPRP | -0.0126
86 | RRIRARPPRLPRPRPRPILHPRP | -0.0341
87 | RRIRARPPRLPRPRPRPILMPRP | 0.143
88 | RRIRARPPRLPRPRPRPILQPRP | 0.0186

Row | Sequence | shrunken log2 fold change
89 | RRIRARPPRLPRPRPRPILSPRP | 0.376
90 | RRIRARPPRLPRPRPRPILYPRP | -0.348
91 | RRIRARPPRLPRPRPRPINFPRP | 0.0601
92 | RRIRARPPRLPRPRPRPIPCPRP | 0.0669
93 | RRIRARPPRLPRPRPRPIQFPRP | 0.166
94 | RRIRARPPRLPRPRPRPIQGPRP | 0.0518
95 | RRIRARPPRLPRPRPRPIQWPRP | 0.0649
96 | RRIRARPPRLPRPRPRPIREPRP | -0.018
97 | RRIRARPPRLPRPRPRPIRNPRP | -0.179
98 | RRIRARPPRLPRPRPRPITEPRP | -0.38
99 | RRIRARPPRLPRPRPRPITRPRP | 0.00663
100 | RRIRARPPRLPRPRPRPITWPRP | 0.0845
101 | RRIRARPPRLPRPRPRPIVGPRP | -0.0201
102 | RRIRARPPRLPRPRPRPIWYPRP | -0.147
103 | RRIRARPPRLPRPRPRPKAPPRP | 0.56
104 | RRIRARPPRLPRPRPRPKCAPRP | 0.363
105 | RRIRARPPRLPRPRPRPKDLPRP | -0.0598
106 | RRIRARPPRLPRPRPRPKDQPRP | 0.504
107 | RRIRARPPRLPRPRPRPKDWPRP | 0.578
108 | RRIRARPPRLPRPRPRPKEPPRP | 0.991
109 | RRIRARPPRLPRPRPRPKERPRP | 0.415
